The source of these data is patent publication US20240084039A1.

The test addresses pre-existing anti-drug antibodies (ADA) present in human sera. Put plainly: ELISA pre-existing ADA binding assay, confirmatory setup, test molecule coated, 20 human sera. (ELISA stands for enzyme-linked immunosorbent assay.)

B1: PRO2925 (scFv)
scFv: DIQMTQSPSSLSASVGDRVTITCQASESIYSSLAWYQQKPGKAPKLLIYLASTLASGVPSRFSGSGSGTDFTLTISSLQPEDFATYYCQSTDYTTSTHRNSFGTGTKVTVLGGGGGSGGGGSGGGGSGGGGSEVQLVESGGGSVQPGGSLRLSCAASGFSFSTTYYMCWVRQAPGKGLEWIGCTNTASSVRTYYATWAKGRFTISRDNSKNTVYLQMNSLRAEDTATYYCARDMGFADYALNLWGQGTQVTVSS
As to B1, the % positives of total tested serum samples worked out at 25% and the No of positive serum samples above 30% CCP (serum samples) amounted to 5.

B2: PRO2921 (scFv)
scFv: DIQMTQSPSSLSASVGDRVTITCQASESIYSSLAWYQQKPGKAPKLLIYLASTLASGVPSRFSGSGSGTDFTLTISSLQPEDFATYYCQSTDYTTSTHRNSFGTGTKVTVLGGGGGSGGGGSGGGGSGGGGSEVQLVESGGGLVQPGGSLRLSCAASGFSFSTTYYMCWVRQAPGKGLEWIGCTNTASSVRTYYATWAKGRFTISRDNSKNTVYLQMNSLRAEDTATYYCARDMGFADYALNLWGQGTQVTVSS
For B2, the % positives of total tested serum samples turned out to be 55% and the No of positive serum samples above 30% CCP (serum samples) stood at 11.

B3: PRO2990 (scFv)
scFv: DIQMTQSPSSLSASVGDRVTITCQASESIYSSLAWYQQKPGKAPKLLIYLASTLASGVPSRFSGSGSGTDFTLTISSLQPEDFATYYCQSTDYTTSTHRNSFGTGTKVTVLGGGGGSGGGGSGGGGSGGGGSEVQLVESGGGSVQPGGSLRLSCAASGFSFSTTYYMCWVRQAPGKGLEWIGCTNTASSVRTYYATWAKGRFTISRDNSKNTVYLQMNSLRAEDTATYYCARDMGFADYALNLWGQGTTVTVSS
B3: the % positives of total tested serum samples amounted to 25% and the No of positive serum samples above 30% CCP (serum samples) came to 5.

B4: PRO2924 (scFv)
scFv: DIQMTQSPSSLSASVGDRVTITCQASESIYSSLAWYQQKPGKAPKLLIYLASTLASGVPSRFSGSGSGTDFTLTISSLQPEDFATYYCQSTDYTTSTHRNSFGTGTKVTVLGGGGGSGGGGSGGGGSGGGGSEVQLVESGGGLVQPGGSLRLSCAASGFSFSTTYYMCWVRQAPGKGLEWIGCTNTASSVRTYYATWAKGRFTISRDNSKNTVYLQMNSLRAEDTAVYYCARDMGFADYALNLWGQGTQVTVSS
In turn, B4 displayed a % positives of total tested serum samples of 75% and a No of positive serum samples above 30% CCP (serum samples) of 15.

B5: PRO2926 (scFv)
scFv: DIQMTQSPASLSASVGDRVTITCQASQSIGTYLAWYQQKPGKPPKLLIYRAFILASGVPSRFSGSGSGTDFTLTISSLQPEDFATYYCQSNFYSDSTTIGPNAFGTGTKVTVLGGGGGSGGGGSGGGGSGGGGSEVQLVESGGGSVQPGGSLRLSCAASGFSFNSDYWIYWVRQAPGKGLEWIASIYGGSSGNTQYASWAQGRFTISRDNSKNTVYLQMNSLRAEDTATYFCARGYVDYGGATDLWGQGTQVTVSS
The molecule B5 displayed a % positives of total tested serum samples of 40% and a No of positive serum samples above 30% CCP (serum samples) of 8.

B6: PRO2909 (scFv)
scFv: DIQMTQSPASLSASVGDRVTITCQASQSIGTYLAWYQQKPGKPPKLLIYRAFILASGVPSRFSGSGSGTDFTLTISSLQPEDFATYYCQSNFYSDSTTIGPNAFGTGTKVTVLGGGGGSGGGGSGGGGSGGGGSEVQLVESGGGLVQPGGSLRLSCAASGFSFNSDYWIYWVRQAPGKGLEWIASIYGGSSGNTQYASWAQGRFTISRDNSKNTVYLQMNSLRAEDTAVYFCARGYVDYGGATDLWGQGTQVTVSS
Molecule B6 had a % positives of total tested serum samples of 50% and a No of positive serum samples above 30% CCP (serum samples) of 10.

B7: PRO2984 (scFv)
scFv: DIQMTQSPASLSASVGDRVTITCQASQSIGTYLAWYQQKPGKPPKLLIYRAFILASGVPSRFSGSGSGTDFTLTISSLQPEDFATYYCQSNFYSDSTTIGPNAFGTGTKVTVLGGGGGSGGGGSGGGGSGGGGSEVQLVESGGGSVQPGGSLRLSCAASGFSFNSDYWIYWVRQAPGKGLEWIASIYGGSSGNTQYASWAQGRFTISRDNSKNTVYLQMNSLRAEDTATYFCARGYVDYGGATDLWGQGTTVTVSS
Molecule B7 displayed a % positives of total tested serum samples of 25% and a No of positive serum samples above 30% CCP (serum samples) of 5.

B8: PRO2906 (scFv)
scFv: DIQMTQSPASLSASVGDRVTITCQASQSIGTYLAWYQQKPGKPPKLLIYRAFILASGVPSRFSGSGSGTDFTLTISSLQPEDFATYYCQSNFYSDSTTIGPNAFGTGTKVTVLGGGGGSGGGGSGGGGSGGGGSEVQLVESGGGLVQPGGSLRLSCAASGFSFNSDYWIYWVRQAPGKGLEWIASIYGGSSGNTQYASWAQGRFTISRDNSKNTVYLQMNSLRAEDTATYFCARGYVDYGGATDLWGQGTQVTVSS
B8 gave a % positives of total tested serum samples of 95% and a No of positive serum samples above 30% CCP (serum samples) of 19.

B9: PRO2741 (protein)
chain 1: DIQMTQSPSSLSASVGDRVTITCQASESIYSSLAWYQQKPGKAPKLLIYLASTLASGVPSRFSGSGSGTDFTLTISSLQPEDFATYYCQSTDYTTSTHRNSFGTGTKVTVLGGGGGSGGGGSGGGGSGGGGSEVQLVESGGGRVQPGGSLRLSCAASGFSFSTTYYMCWVRQAPGKGLEWIGCTNTASSVRTYYATWAKGRFTISRDNSKNTVYLQMNSLRAEDTATYYCARDMGFADYALNLWGQGTQVTVSSGGGGSGGGGSEVQLVESGGGRVQPGGSLRLSCAASGFSLSSYDMSWVRQAPGKGLAWIGASYASGPTYYASWAKGRFTISRDNSKNTVYLQMNSLRAEDTATYFCARGGWTGTSHSNIWGQGTQVTVSSGGGSGGGSGGGSGEVQLVESGGGRVQPGGSLRLSCAASGFSLSSYAMNWVRQAPGKCLEWIGHINAGDIAYYATWAKGRFTISRDNSKNTVYLQMNSLRAEDTATYFCARGAGGFSTGPFKLWGQGTQVTVSS
chain 2: DIQMTQSPSSLSASVGDRVTITCQASESIYSSLAWYQQKPGKAPKLLIYLASTLASGVPSRFSGSGSGTDFTLTISSLQPEDFATYYCQSTDYTTSTHRNSFGTGTKVTVLGGGGGSGGGGSGGGGSGGGGSEVQLVESGGGRVQPGGSLRLSCAASGFSFSTTYYMCWVRQAPGKGLEWIGCTNTASSVRTYYATWAKGRFTISRDNSKNTVYLQMNSLRAEDTATYYCARDMGFADYALNLWGQGTQVTVSSGGGGSGGGGSAFELTQSPSSLSASVGDRVTITCQASESINSRLAWYQQKPGQPPKLLIYDASDLTSGVPSRFSGSGSGTDFTLTISSLQPEDFATYYCQGYGGSSTTTFGCGTKLTVLGGGSGGSDIQMTQSPSSLSASVGDRVTITCQSSQSVFSNNYLAWFQQKPGQSPKRLIYSASTLASGVPSRFSGSGSGTDFTLTISSLQPEDFATYYCLGSYACSSADCYVFGTGTKVTVLG
B9: the % positives of total tested serum samples worked out at 15% and the No of positive serum samples above 30% CCP (serum samples) worked out at 3.
